According to patent publication US20170204402A1:

How the values were obtained:
Experiment in all cases: cell-based or functional assay
[1] = target: ACM335-GFP hybrid protein (from plasmid pCm-ACM335-GFP) (Bordetella pertussis)
[2] = target: ACM247-GFP hybrid protein (from plasmid pCm-ACM247-GFP) (Bordetella pertussis) (UniProt J7QLC0)
[3] = target: AC-GFP hybrid protein (wild-type AC fused at its C-terminus to GFP, from plasmid pCm-AC-GFP) (Bordetella pertussis) (UniProt J7QLC0)
[4] = target: AC (wild-type, from plasmid pCm-AC, no fused moiety) (Bordetella pertussis) (UniProt J7QLC0)
[5] = target: ACM335 (from plasmid pCm-ACM335, no fused moiety) (Bordetella pertussis) (UniProt J7QLC0)
[6] = target: ACM335-FKBP hybrid protein (from plasmid pCm-ACM335-FKBP) (Bordetella pertussis) (UniProt P62942)

CaM (from plasmid pTr-CaM, not fused to a moiety of interest) (from UniProt P0DP23 2-149)
β gal; CaM from pTr-CaM [1]: 80 Rel. Units
cAMP; CaM from pTr-CaM (nmol/mg dry weigth) [2]: < 0.1
β gal; CaM from pTr-CaM [2]: 1 Rel. Units
cAMP; CaM from pTr-CaM (nmol/mg dry weigth) [3]: > 250
β gal; CaM from pTr-CaM [3]: 106 Rel. Units

CaMVU8 (VU-8 calmodulin, from plasmid pCaMVU8) (from UniProt P0DP23 2-149)
β-galactosidase (relative units) [1]: 6
β-galactosidase (relative units) [4]: 6
β-galactosidase (relative units) [5]: 7
β-galactosidase (relative units) [6]: 6
β-galactosidase (relative units) [3]: 5
